Where a chain is given by its changes, count along the chain named. Read-outs that look alike come from different tables or passages of the source.
B1: B2 (antibody, human IgG1, kappa, L234A L235A, V domains shown)
VH: EVQLVESGGGLVQPGGSLRLSCAASGLTFSSYVMSWVRQAPGKGLEWVSTISSGGVSTYYPDTVKGRFTISRDNSKNTLYLQMNSLRAEDTAVYYCAKRETARATGFAYWGQGTLVTVSA
VL: DIQMTQSPSSLSASVGDRVTITCKASQSVSDDVTWYQQKPGKAPKLLIYYASNRYTGVPSRFSGSGSGTDFTFTISSVQPEDIATYYCQQDYSSPWTFGGGTKLEIKR
notes: Humanized monoclonal antibody; also called anti-CD73 antibody B2
B2: C2 (antibody, human IgG1, kappa, L234A L235A, V domains shown)
VH: QVQLVQSGAEVKKPGDSVKVSCKASGYTFTTYWMHWVRQAPGQGLEWMGAIYPGLSDTTYSQKFKGKVTMTRDTSTSTVYMKLSSLRSEDTAVYYCARLLDYAMDYWGQGTLVTVSS
VL: DIQMTQSPSSLSASVGDRVTITCRASQDIRSYLNWHQQKPGKAPKLLIWYTSRLHSGVPSRFSGSGSGTDYTLTISSLEPEDFATYFCQQGETLPWTFGQGTKLEIKR
notes: Humanized monoclonal antibody; also called anti-CD73 antibody C2
B3: C1 (antibody, human IgG1, kappa, L234A L235A, V domains shown)
VH: B2 VH with L55F
VL: B2 VL
notes: Humanized monoclonal antibody; also called anti-CD73 antibody C1

Tests used:
cell-bound CD73 [1] = biological target: T1, cell-bound CD73 (human, UniProt P21589 27-549); experiment: cell-based or functional assay
T1 sequence (looked up): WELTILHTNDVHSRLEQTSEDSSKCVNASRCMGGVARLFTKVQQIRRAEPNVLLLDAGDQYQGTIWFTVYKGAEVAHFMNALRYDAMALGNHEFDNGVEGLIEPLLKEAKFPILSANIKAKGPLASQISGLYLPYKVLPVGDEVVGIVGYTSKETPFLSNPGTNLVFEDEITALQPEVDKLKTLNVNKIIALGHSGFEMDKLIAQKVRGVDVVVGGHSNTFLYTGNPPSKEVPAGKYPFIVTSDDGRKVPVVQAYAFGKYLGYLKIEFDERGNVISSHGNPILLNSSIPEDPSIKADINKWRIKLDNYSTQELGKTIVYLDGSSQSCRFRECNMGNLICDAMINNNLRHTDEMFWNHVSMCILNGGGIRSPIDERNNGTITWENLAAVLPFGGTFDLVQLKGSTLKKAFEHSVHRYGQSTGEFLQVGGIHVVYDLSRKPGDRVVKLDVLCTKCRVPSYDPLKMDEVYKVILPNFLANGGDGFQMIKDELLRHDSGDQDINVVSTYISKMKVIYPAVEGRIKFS

non-cell-bound CD73 = biological target: T2, non-cell-bound CD73 (human, UniProt P21589 27-549, limits assumed); experiment: cell-based or functional assay
T2 sequence (looked up): T1 sequence (looked up)

cell-bound CD73 [2] = biological target: T1, cell-bound CD73; experiment: cell-based or functional assay; remark: listed apart in the source
human CD73-His = biological target: T3, human CD73-His (human, UniProt P21589 27-549); experiment: SPR (ProteOn XPR36), antibody captured on Protein A/G, dimeric human CD73-His as analyte, avidity format, 1:1 Langmuir fit
T3 construct: extracellular domain; The SPR analyte is only called 'human CD73-His' (non-covalent dimeric antigen); also called HuCD73 His tagged; HuCD73his20170303
T3 sequence: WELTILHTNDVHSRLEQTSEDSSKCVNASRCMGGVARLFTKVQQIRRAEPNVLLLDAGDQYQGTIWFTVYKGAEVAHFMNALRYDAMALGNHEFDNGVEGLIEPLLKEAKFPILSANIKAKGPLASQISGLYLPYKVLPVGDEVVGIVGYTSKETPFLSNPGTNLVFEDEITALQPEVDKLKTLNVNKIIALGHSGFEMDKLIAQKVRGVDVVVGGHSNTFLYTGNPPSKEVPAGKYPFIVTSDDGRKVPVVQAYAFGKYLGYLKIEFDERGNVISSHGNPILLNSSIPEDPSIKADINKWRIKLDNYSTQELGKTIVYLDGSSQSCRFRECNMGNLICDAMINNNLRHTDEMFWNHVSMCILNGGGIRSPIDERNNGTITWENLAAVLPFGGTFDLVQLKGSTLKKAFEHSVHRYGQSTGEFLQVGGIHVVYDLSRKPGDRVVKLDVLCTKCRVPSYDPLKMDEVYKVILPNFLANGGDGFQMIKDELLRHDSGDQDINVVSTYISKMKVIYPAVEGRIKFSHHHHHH
Experimental: For the avidity format, the experiment was performed on a Bio-Rad ProteOn XPR36 instrument. Antibodies were captured via Protein A/G and the non-covalent dimeric antigens were flowed over the captured surface. The running buffer for this experiment and all dilutions were prepared in PBS-T-EDTA. The GLM sensor chip was normalized and pre-conditioned as per the manufacturer's recommendations. The sensor chip was activated with an equal mixture of EDC/s-NHS in the horizontal direction for 300 s at a flow rate of 30 μL/min and immobilized with recombinant Protein A/G (50 μg/ml in 10 mM acetate pH 4.5) in the horizontal direction for 300 s at a flow rate of 30 μL/min resulting in about 5000 RU of Protein A/G on the surface. The sensor chip was deactivated with 1M ethanolamine-HCl in the horizontal direction for 300 s at a flow rate of 30 μL/min. The sensor chip was regenerated with 18 s of 0.85% phosphoric acid at a flow rate of 100 μL/min 2 times horizontally and 2 times vertically.
About 300 RU of antibody was captured on the Protein A/G surface vertically for 60 s at a flow rate of 30 μL/min. The capture surface was stabilized by injecting PBS-T-EDTA for 60 s at a flowrate of 100 μL/min horizontally. The analyte (human CD73-His) was injected horizontally over the captured antibody for 600 s at a flow rate of 30 μL/min with a dissociation of 1200 s. The concentrations of human CD73-His were 0 nM, 3.125 nM, 6.25 nM, 12.5 nM, 25 nM and 50 nM. The surface was regenerated by injecting 0.85% phosphoric acid for 18 s at a flow rate of 100 μL/min one time horizontally and one time vertically.
The interspot (interactions with sensor surface) and blank (PBS-T-EDTA or 0 nM analyte) were subtracted from the raw data.

[3] = biological target: T4, recombinant human CD73 protein (human, UniProt P21589 27-549, limits assumed); experiment: cell-based or functional assay
T4 sequence (looked up): T1 sequence (looked up)

cell-bound CD73 [4] = biological target: T1, cell-bound CD73; experiment: cell-based or functional assay; remark: listed apart in the source
cell-bound CD73 [5] = biological target: T1, cell-bound CD73; experiment: cell-based or functional assay; remark: listed apart in the source
cell-bound CD73 [6] = biological target: T1, cell-bound CD73; experiment: cell-based or functional assay; remark: listed apart in the source
cell-bound CD73 [7] = biological target: T1, cell-bound CD73; experiment: cell-based or functional assay; remark: listed apart in the source
mouse CD73 = biological target: T5, mouse CD73 (mouse, UniProt Q61503 29-551, limits assumed); experiment: SPR, mouse CD73 compared with human CD73 (reference)
T5 construct: also called murine CD73
T5 sequence (looked up): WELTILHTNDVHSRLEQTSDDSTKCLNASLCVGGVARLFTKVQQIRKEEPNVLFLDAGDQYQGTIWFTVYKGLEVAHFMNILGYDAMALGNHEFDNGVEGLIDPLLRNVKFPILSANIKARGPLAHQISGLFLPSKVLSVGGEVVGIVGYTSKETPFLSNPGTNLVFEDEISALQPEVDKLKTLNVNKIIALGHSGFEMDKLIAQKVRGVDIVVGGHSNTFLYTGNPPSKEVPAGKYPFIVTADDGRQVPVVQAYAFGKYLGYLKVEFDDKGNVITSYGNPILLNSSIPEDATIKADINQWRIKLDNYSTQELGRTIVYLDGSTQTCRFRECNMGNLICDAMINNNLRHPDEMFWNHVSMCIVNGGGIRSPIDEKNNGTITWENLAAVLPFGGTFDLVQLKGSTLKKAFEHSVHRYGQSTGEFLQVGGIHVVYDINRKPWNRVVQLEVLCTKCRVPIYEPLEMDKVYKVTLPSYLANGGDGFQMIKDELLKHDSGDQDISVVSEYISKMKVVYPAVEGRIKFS

Row | Molecule | % of max. adenosine inhibition, washed Colo-201 cells (cell-bound CD73 [1]) [%] | CD8 T cell proliferation [% of control], Donor A, 1 nM antibody (cell-bound CD73 [1]) [%] | CD8 T cell proliferation [% of control], Donor B, 1 nM antibody (cell-bound CD73 [1]) [%] | CD8 T cell proliferation [% of control], Donor C, 1 nM antibody (cell-bound CD73 [1]) [%] | CD8 T cell proliferation [% of control], Donor D, 1 nM antibody (cell-bound CD73 [1]) [%] | CD8 T cell proliferation [% of control], Donor E, 1 nM antibody (cell-bound CD73 [1]) [%] | CD8 T cell proliferation [% of control], Donor F, 1 nM antibody (cell-bound CD73 [1]) [%] | CD73 surface reduction [%] on Colo201 cells, 24 h, flow cytometry (cell-bound CD73 [1]) [%] | IFNγ release [fold change over control], Donor A, 1 nM antibody (cell-bound CD73 [1]) [fold] | IFNγ release [fold change over control], Donor B, 1 nM antibody (cell-bound CD73 [1]) [fold] | % of max. adenosine inhibition, Colo-201 culture supernatant (non-cell-bound CD73) [%] | % of max. adenosine inhibition, washed Colo-201 cells (cell-bound CD73 [2]) [%] | Kd (human CD73-His) [nM] | IC90 of inhibition of CD73 enzymatic function (luciferase-based assay) [3] [nM] | CD8 T cell proliferation [% of control], Donor A, 1 nM antibody (cell-bound CD73 [4]) [%] | CD8 T cell proliferation [% of control], Donor B, 1 nM antibody (cell-bound CD73 [4]) [%] | Max. adenosine inhibition [%] in Colo201 cells (cell-bound CD73 [5]) [%] | CD73 surface reduction [%] on Colo201 cells, 24 h, flow cytometry (cell-bound CD73 [6]) [%] | IFNγ release [fold change over control], Donor A, 1 nM antibody (cell-bound CD73 [7]) [fold] | IFNγ release [fold change over control], Donor B, 1 nM antibody (cell-bound CD73 [7]) [fold] | further results
1 | "BMS986179" (antibody) | 84 | 40.7 | 61.7 | 99.6 | 98.7 | 95.4 | 22.5 | 58 | 10.9 | 5.2 | 63 | – | – | – | – | – | – | – | – | – | IFNγ release [fold change over control], Donor C, 1 nM antibody (cell-bound CD73 [1]): 36.4 fold; IFNγ release [fold change over control], Donor D, 1 nM antibody (cell-bound CD73 [1]): 13.3 fold; IFNγ release [fold change over control], Donor E, 1 nM antibody (cell-bound CD73 [1]): 7.2 fold; IFNγ release [fold change over control], Donor F, 1 nM antibody (cell-bound CD73 [1]): 2.9 fold; Max. adenosine inhibition [%] in Colo201 cells (cell-bound CD73 [1]): 68%
2 | "MEDI9447" (antibody) | 62 | 43.9 | 46.7 | 115 | 98 | 85.5 | -34.1 | 17 | 7.7 | 5.3 | 56 | – | – | – | – | – | – | – | – | – | IFNγ release [fold change over control], Donor C, 1 nM antibody (cell-bound CD73 [1]): 16.2 fold; IFNγ release [fold change over control], Donor D, 1 nM antibody (cell-bound CD73 [1]): 20.7 fold; IFNγ release [fold change over control], Donor E, 1 nM antibody (cell-bound CD73 [1]): 5 fold; IFNγ release [fold change over control], Donor F, 1 nM antibody (cell-bound CD73 [1]): 1.1 fold; Max. adenosine inhibition [%] in Colo201 cells (cell-bound CD73 [1]): 63%
3 | B1 | – | – | – | – | – | – | – | – | – | – | 62 | 70 | 0.42 | 1.04 | 55.6 | 62.2 | 77 | 31 | 12.6 | 8.1 | CD8 T cell proliferation [% of control], Donor C, 1 nM antibody (cell-bound CD73 [4]): 95.8%; CD8 T cell proliferation [% of control], Donor D, 1 nM antibody (cell-bound CD73 [4]): 98.5%; CD8 T cell proliferation [% of control], Donor E, 1 nM antibody (cell-bound CD73 [4]): 99.1%; CD8 T cell proliferation [% of control], Donor F, 1 nM antibody (cell-bound CD73 [4]): -8.9%; IFNγ release [fold change over control], Donor C, 1 nM antibody (cell-bound CD73 [7]): 34.1 fold; IFNγ release [fold change over control], Donor D, 1 nM antibody (cell-bound CD73 [7]): 17.7 fold; IFNγ release [fold change over control], Donor E, 1 nM antibody (cell-bound CD73 [7]): 11.1 fold; IFNγ release [fold change over control], Donor F, 1 nM antibody (cell-bound CD73 [7]): 3.1 fold
4 | B2 | – | – | – | – | – | – | – | – | – | – | 77 | 78 | 0.063 | 0.49 | 103 | 68.5 | 88 | 15 | 20.3 | 7.8 | fold higher binding to human CD73 than to mouse CD73 (mouse CD73): 138 fold
5 | B3 | – | – | – | – | – | – | – | – | – | – | 76 | 79 | 0.072 | 0.49 | 104 | 86.7 | 86 | 20 | 20.9 | 12 | CD8 T cell proliferation [% of control], Donor C, 1 nM antibody (cell-bound CD73 [4]): 107%; CD8 T cell proliferation [% of control], Donor D, 1 nM antibody (cell-bound CD73 [4]): 99.5%; CD8 T cell proliferation [% of control], Donor E, 1 nM antibody (cell-bound CD73 [4]): 101%; CD8 T cell proliferation [% of control], Donor F, 1 nM antibody (cell-bound CD73 [4]): 84.2%; fold higher binding to human CD73 than to mouse CD73 (mouse CD73): 96 fold; IFNγ release [fold change over control], Donor C, 1 nM antibody (cell-bound CD73 [7]): 51.3 fold; IFNγ release [fold change over control], Donor D, 1 nM antibody (cell-bound CD73 [7]): 20.9 fold; IFNγ release [fold change over control], Donor E, 1 nM antibody (cell-bound CD73 [7]): 12.8 fold; IFNγ release [fold change over control], Donor F, 1 nM antibody (cell-bound CD73 [7]): 6.7 fold
